In doi:10.1101/2025.10.14.682297 (bioRxiv, 2025):

Biological target: the molecule itself
Assay: cryo-EM structure

B1: human ZNFX1 (NFX1-type zinc finger-containing 1), full-length, 2xStrep-tagged, wild type (enzyme, UniProt Q9P2E3 1-1918, looked up)
chain: MEERRPHLDARPRNSHTNHRGPVDGELPPRARNQANNPPANALRGGASHPGRHPRANNHPAAYWQREERFRAMGRNPHQGRRNQEGHASDEARDQRHDQENDTRWRNGNQDCRNRRPPWSNDNFQQWRTPHQKPTEQPQQAKKLGYKFLESLLQKDPSEVVITLATSLGLKELLSHSSMKSNFLELICQVLRKACSSKMDRQSVLHVLGILKNSKFLKVCLPAYVVGMITEPIPDIRNQYPEHISNIISLLQDLVSVFPASSVQETSMLVSLLPTSLNALRASGVDIEEETEKNLEKVQTIIEHLQEKRREGTLRVDTYTLVQPEAEDHVESYRTMPIYPTYNEVHLDERPFLRPNIISGKYDSTAIYLDTHFRLLREDFVRPLREGILELLQSFEDQGLRKRKFDDIRIYFDTRIITPMCSSSGIVYKVQFDTKPLKFVRWQNSKRLLYGSLVCMSKDNFETFLFATVSNREQEDLCRGIVQLCFNEQSQQLLAEVQPSDSFLMVETTAYFEAYRHVLEGLQEVQEEDVPFQRNIVECNSHVKEPRYLLMGGRYDFTPLIENPSATGEFLRNVEGLRHPRINVLDPGQWPSKEALKLDDSQMEALQFALTRELAIIQGPPGTGKTYVGLKIVQALLTNESVWQISLQKFPILVVCYTNHALDQFLEGIYNCQKTSIVRVGGRSNSEILKQFTLRELRNKREFRRNLPMHLRRAYMSIMTQMKESEQELHEGAKTLECTMRGVLREQYLQKYISPQHWESLMNGPVQDSEWICFQHWKHSMMLEWLGLGVGSFTQSVSPAGPENTAQAEGDEEEEGEEESSLIEIAEEADLIQADRVIEEEEVVRPQRRKKEESGADQELAKMLLAMRLDHCGTGTAAGQEQATGEWQTQRNQKKKMKKRVKDELRKLNTMTAAEANEIEDVWQLDLSSRWQLYRLWLQLYQADTRRKILSYERQYRTSAERMAELRLQEDLHILKDAQVVGMTTTGAAKYRQILQKVEPRIVIVEEAAEVLEAHTIATLSKACQHLILIGDHQQLRPSANVYDLAKNFNLEVSLFERLVKVNIPFVRLNYQHRMCPEIARLLTPHIYQDLENHPSVLKYEKIKGVSSNLFFVEHNFPEQEIQEGKSHQNQHEAHFVVELCKYFLCQEYLPSQITILTTYTGQLFCLRKLMPAKTFAGVRVHVVDKYQGEENDIILLSLVRSNQEGKVGFLQISNRICVALSRAKKGMYCIGNMQMLAKVPLWSKIIHTLRENNQIGPMLRLCCQNHPETHTLVSKASDFQKVPEGGCSLPCEFRLGCGHVCTRACHPYDSSHKEFQCMKPCQKVICQEGHRCPLVCFQECQPCQVKVPKTIPRCGHEQMVPCSVPESDFCCQEPCSKSLRCGHRCSHPCGEDCVQLCSEMVTIKLKCGHSQPVKCGHVEGLLYGGLLVKCTTKCGTILDCGHPCPGSCHSCFEGRFHERCQQPCKRLLICSHKCQEPCIGECPPCQRTCQNRCVHSQCKKKCGELCSPCVEPCVWRCQHYQCTKLCSEPCNRPPCYVPCTKLLVCGHPCIGLCGEPCPKKCRICHMDEVTQIFFGFEDEPDARFVQLEDCSHIFEVQALDRYMNEQKDDEVAIRLKVCPICQVPIRKNLRYGTSIKQRLEEIEIIKEKIQGSAGEIATSQERLKALLERKSLLHQLLPEDFLMLKEKLAQKNLSVKDLGLVENYISFYDHLASLWDSLKKMHVLEEKRVRTRLEQVHEWLAKKRLSFTSQELSDLRSEIQRLTYLVNLLTRYKIAEKKVKDSIAVEVYSVQNILEKTCKFTQEDEQLVQEKMEALKATLPCSGLGISEEERVQIVSAIGYPRGHWFKCRNGHIYVIGDCGGAMERGTCPDCKEVIGGTNHTLERSNQLASEMDGAQHAAWSDTANNLMNFEEIQGMM
  stoichiometry N: 2
